What is called Kd is the concentration at which binding is half-saturated.

The source of these data is PMC9487866 (Immunity, 2022).

This test deals with Pfs48/45-6C wild type (Plasmodium falciparum 3D7, UniProt Q8I6T1). Put plainly: BLI. Conditions: both partners purified.
Sequence of Pfs48/45-6C wild type (Q8I6T1 291-428): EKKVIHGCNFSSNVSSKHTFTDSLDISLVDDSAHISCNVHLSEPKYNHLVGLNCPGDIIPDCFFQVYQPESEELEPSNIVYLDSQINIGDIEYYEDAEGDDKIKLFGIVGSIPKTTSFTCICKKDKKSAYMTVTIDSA

B1: TB31F Fab (Fab, V domains shown)
VH: EVQLVQSGGGLVQPGGSLRLSCAASGFTFNNYWMSWVRQAPGKGLEWVSSISNIGGTIYYPDSVKGRFTISRDNSKNTLYLQMNSLRAEDTAVYYCTRDLRMSDYFDYWGQGTMVTVSS
VL: NFMLTQPHSVSESPGKTVTISCTRSTGNIGSNYVSWYQQRPGSSPTTVIYRDDQRPSGVPDRFSGSIDRSSNSASLTISGLKTEDEADYYCHSYSTGMYIFGGGTKLTVL
Molecule B1 came in with a dissociation constant Kd of 3.1 nM.
